Biological target: human CD3 (human, UniProt P07766 23-207; P04234 22-171; P09693 23-182)
Assay: cell-based or functional assay

Chain of human CD3 (P07766 23-207, chain 1 of 3): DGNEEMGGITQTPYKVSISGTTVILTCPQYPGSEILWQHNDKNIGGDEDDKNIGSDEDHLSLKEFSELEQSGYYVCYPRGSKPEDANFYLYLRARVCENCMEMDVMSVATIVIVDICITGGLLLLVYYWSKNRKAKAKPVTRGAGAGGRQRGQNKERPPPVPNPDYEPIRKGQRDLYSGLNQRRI
Chain of human CD3 (P04234 22-171, chain 2 of 3): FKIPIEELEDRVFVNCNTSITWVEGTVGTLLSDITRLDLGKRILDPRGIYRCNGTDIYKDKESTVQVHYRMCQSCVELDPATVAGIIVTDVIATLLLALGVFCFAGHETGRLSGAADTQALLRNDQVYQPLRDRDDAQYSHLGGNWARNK
Chain of human CD3 (P09693 23-182, chain 3 of 3): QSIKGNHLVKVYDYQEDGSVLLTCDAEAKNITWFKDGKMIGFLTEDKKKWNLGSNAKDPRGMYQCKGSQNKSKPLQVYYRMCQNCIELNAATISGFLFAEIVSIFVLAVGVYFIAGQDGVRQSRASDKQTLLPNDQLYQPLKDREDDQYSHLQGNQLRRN

Binder	CD4 EC50 (nM); CD69/CD25 on human T cells, plate-coated antibody	CD8 EC50 (nM); CD69/CD25 on human T cells, plate-coated antibody
mAb 71 (antibody, V domains shown) VH: QVQLVQSGAEVRKPGASVKVSCKASGYTFTKYDVNWVRQAPGQGLEWMGWMNSNNGNIGYAQKFQGRVTMTRKTSISTAYMELSSLRSEDTAVYYCAREGHYDFWRGFYNFDYWGQGTLVTVSS VL: DIQMTQSPSSLSASVGDRVTITCRASQDIKNDLGWYQQKPGKAPKRLIYAASSLQSGVPSRFSGSGSGTEFTLTISSLQPEDFATYYCLQHNFYPITFGQGTRLEIK	19.3 nM	19.2 nM
mAb 73 (antibody, V domains shown) VH: EVELVESGGGLVQPGRSLRLSCAASGFTFDDKVMHWVRQAPGKGLEWVSCINWNSGHIGYADSVKGRFTISRDNARTSLYLQMNSLRPEDTALYYCVREGNYDFWSGYYRGFFDLWGRGTLVTVSS VL: DIQMTQSPSSLSASVGDRVTITCRASQGIRNDLGWYQQKPGKAPKRLIYAASSLQGGVPSRFSGSGSGTEFTLTISSLQPEDFATYYCLQHTSYPFTFGQGTKLEIK	24.8 nM	23 nM
mAb 43 (antibody, V domains shown) VH: QAQLVQSGSELKKPGASVKVSCKASGYTFTKHSMNWVRQAPGQGLEWMGWINTNTGNPMYAQGFTGRFVFSLDTSVTTAYLQISSLKAEDTAVYYCAREGDYDFWSGFFNFDYWGQGTLVTVSS VL: DIQMTQSPSSLSASVGDRVTITCRASQGIRNDLGWYQQKPGKAPKRLIYAASSLQSGVPSRFSGSGSGAEFTLTISSLQPEDFATYYCLQHNSYPRTFGQGTKVEIK	24.6 nM	25.6 nM
mAb 44 (antibody, V domains shown) VH: QAQLVQSGSELKKPGASVKVSCKASGYTFTRHAMNWVRQAPGQGLEWMGWINTNTGNPTYAQGFTGRFVFSLDTSVSTAYLKISSLKAEDTAVYYCVREGDYDFWSGFFNFDYWGQGTLVTVSS VL: DIQMTQSPSSLSASVGDRVTITCRASQGIRNDLGWFQQKPGKAPTRLIYAASSLQSGVPSRFSGSGSGAEFTLTISSLQPEDFATYYCLQHNSYPRTFGQGTKVEIK	20.4 nM	20.9 nM
mAb 74 (antibody, V domains shown) VH: EVQLVESGGGLVQPGRSLRLSCAASGFTFADYVMHWVRQAPGKGLEWVSGINWNNARIGYVGSVKGRFTISRDNAKNSLYLQMTSLRVEDTALYHCVREGNFDFWSAYYRGFLDLWGRGTLVTVSS VL: DIQMTQSPSSLSASVGDRVTITCRASQGIRSDLGWYQQKPGKAPKRLIYGASSLQGGVPSRFSGSGSGTEFTLTISSLQPEDFATYYCLQHNSYPYTFGQGTKLEIK	20.9 nM	19.6 nM
mAb 72 (antibody, V domains shown) VH: EVQLVDSGGGLVQPGGSLRLSCAASGFTFSSYWMSWVRQAPGKGLEWVANIKQDGSEKYYVDSVKGRFTISRDNVKNSLSLEMNSLRAEDTALYYCARDESSSWYWYFDLWGRGTLVTVSS VL: DIQMTQSPSTLSASVGDRVTITCRASQSISKWLAWYQQKPGKAPKLLIYKASSLENGVPSRFSGSGSGTEFTLTISSLQPDDFATYYCQQYSSYSRTFGQGTKVEIK	16.4 nM	18.2 nM
mAb 78 (antibody, V domains shown) VH: EVQLVESGGGLVQPGGSLRLSCAASGFTFSSYWMSWVRQAPGKGLEWVANIKQDGSEKYYVDSVKGRFTISRDNAKNSLYLQMNSLRAEDTAVYYCARDNSPSFYWYFDLWGRGTLVTVSS VL: DIQMTQSPSTLSASVGDRVTITCRASQSLSRWLAWYQQKPGKAPKLLIYKASSLESGVPSRFSGSGSGTEFTLTISSLQPDDFATYYCQQYYTYSRTFGQGTKVEIK	12.2 nM	12.2 nM
mAb 77 (antibody, V domains shown) VH: EVQLVESGGGLVQPGGSLRLSCAASGFTFSNYWMSWVRQAPGKGLEWVANIKQDGSEKYYVDSVRGRFTISRDNAKKSLYLQMNSLRAEDTAVYYCARDNSNYAYWYFDIWGRGTLVTVSS VL: DIQMTQSPSTLSVSVGDRVTITCRASQSIRKWLAWYQQKPGKAPKLLIFKASSLESGVPSRFSGSGSGTEFTLTISSLQPDDFATYYCQQYDTYSRTFGQGTKVEIK	12.9 nM	13.1 nM

The remaining lines, values ahead:

CD4 EC50 (nM); CD69/CD25 on human T cells, plate-coated antibody	CD8 EC50 (nM); CD69/CD25 on human T cells, plate-coated antibody	Binder
15.6 nM	16.9 nM	mAb 102 (antibody, V domains shown) VH: QVQLVESGGGVVQPGRSLRLSCAASGFSFRSYGMHWVRQAPGKGLEWVSVISYDGGNKYYADSVKGRFTISRDNSKNTLFLQMKSLRAEDTALYYCAKGGGTYWRGLFEYWGQGTLVTVSS VL: DIQLTQSPSFLSASVGDRVTITCRASQGISSYLAWYQKKPGKAPKLLIYAASTLHSGVPSRFSGGGSGTAFTLTISSLQPEDFATYYCQQLNNYPFTFGPGTKVDIK
11.7 nM	12.4 nM	mAb 94 (antibody, V domains shown) VH: QVHLVESGGGVVQPGRSLRLSCSASGFTFSGYGMHWVRQAPGKGLEWVALIYFDGRNKYYADSVKGRFTISRDNSKNTLYLQMNSLRAEDTAVYYCARGGGYNWFDPWGQGTLVTVSS VL: DIQMTQSPSSLSASVGDRVTITCRASQSISNYLNWYQQKPGKAPKLLIYLASSLQSGVPSRFSGSGSGTDFTLTINSLQPEDFASYYCQLSYSSPFTFGPGTKVDVN
11.7 nM	12.1 nM	mAb 99 (antibody, V domains shown) VH: QGQLVESGGGVVQPGRSLRLSCAASGFTFRGFGMHWVRQAPGKGLEWVAIIYYDGKNKYYADSVKGRFTISRDNSKNTLYLQMNSLRAEDTAVYYCAKGGGYNWFDPWGQGTLVTVSS VL: DIQMTQSPSSLSASVGDRVTITCRASQSISTYLNWYQQKPGKAPKLLIYSASSLQSGVPSRFSGSGSGTDFTLTISNLQPEDFAIYYCQRSYSPPFTFGPGTKLDIR
17.2 nM	19.5 nM	mAb 96 (antibody, V domains shown) VH: QAHLVESGGGVVQPGRSLRLSCSASGFTFSGYGMHWVRQAPGKGLEWVSLIYFDGRNKYYADSVKGRFTISRDNSKNTLYLQMNSLRAEDTAVYYCARGGGYNWFDPWGQGTLVTVSS VL: DIQMTQSPSSLSASVGDRVTITCRASQSINNYLSWYQQKPGKAPKLLIYLASNLQSGVPSRFSGNGSGTDFTLTISSLQPEDFATYYCQLSYRSPFTFGPGTKVDVK
11.3 nM	12 nM	mAb 98 (antibody, V domains shown) VH: QVHLVESGGDVVQPGRSLRLSCSASGFTFSGYGMHWVRQAPGKGLEWVALIYFDGRNKYYADSVKGRFTISRDNSKNTLYLQMNSLRAEDTAVYYCARGGGYNWFDPWGQGTLVTVSS VL: DIQMTQSPSSLSASVGDRVTITCRASQSINNYLNWYQQKPGKAPKLLIYLASSLQSGVPSRFSGSGSGTDFTLTISSLQPEDLATYYCQLSYSSPFTFGPGTKVDVK
12.6 nM	13.9 nM	mAb 97 (antibody, V domains shown) VH: QGQLVESGGGVVQPGRSLRLSCAASGFTFRGYGMHWVRQAPGKGLEWVAIIYYDGKNKYYADSVKGRFTISRDNSKNTLYLQMNNLRVEDTAVYYCARGGGYNWFDPWGQGTLVTVSS VL: DIQMTQSPSSLSASIGDRVTITCRASQSISNYLNWYQQKPGKAPKLLIYSASSLQSGVPSRFSGSGSGTDFTLTISNLQPEDFAIYYCQRSYSPPFTFGPGTKLDIR
12.9 nM	14.5 nM	mAb 101 (antibody, V domains shown) VH: QGQLVESGGGVVQPGRSLRLSCAASGFTFRGFGMHWVRQAPGKGLEWVAIIYYDGKNKYYADSVKGRFTISRDNSKNMLYLQMNSLRAEDTAVYYCAKGGGYNWFDPWGQGTLVTVSS VL: DIQMTQSPSSLSASVGDRVTITCRASQSISTYLNWYQQKPGKAPKLLIYSASSLQSGVPSRFSGSGSGTDFTLTISNLQPEDFAIYYCQRSYSPPFTFGPGTKLDIR
13.1 nM	13.3 nM	mAb 100 (antibody, V domains shown) VH: QVQLVESGGGVVQPGRSLRLSCVASGFTFRGYGMHWVRQAPGKGLEWVAIIYYDGKNKYYADSVKGRFTISRDNSKNTLYLQMNSLRVEDTALYYCARGGGYNWFDPWGQGTLVTVSS VL: DIQMTQSPSSLSASVGDRVTITCRASQSISTYLNWYQQKPGKAPKLLIYTASSLQSGVPSRFSGSGSGTVFTLTISSLQPEDFAIYYCQRSYSPPFTFGPGTRLDIK
14.4 nM	15.5 nM	mAb 95 (antibody, V domains shown) VH: QAHLVESGGGVVQPGRSLRLSCSASGFTFSGYGMHWVRQAPGKGLEWVALIYFDGRNKYYADSVKGRFTISRDNSKNTLYLQMNSLRAEDTAVYYCARGGGYNWFDPWGQGTLVTVSS VL: DIQMTQSPSSLSASVGDRVTITCRASQSINNYLSWYQQKPGKAPKLLIYLASNLQSGVPSRFSGSGSGTDFTLTISSLQPEDFATYYCQLSYRSPFTFGPGTKVDVK
10.4 nM	11 nM	mAb 79 (antibody, V domains shown) VH: QVQLVQSGAEVKKPGASVKVSCKASGYIVTGYYMHWVRQAPGHGLEWMGWINPNSGGTNFAQNFQGRVTMTRDTSISTFYMDLNRLTSDDTAVYYCARGGAPVSYWFFDLWGRGTLVTVSS VL: DIQMTQSPSSLSASVGDRVTITCRASQNINSYLNWYHQKPGKAPKVLIYNTSTLKSGVPSRFSGSGSGTYFTLTISSLQPEDFATFYCQQSHSTPFTFGPGTKVDIK
9.43 nM	10.3 nM	mAb 85 (antibody, V domains shown) VH: QVQLVQSGAEVKKPGASVKVSCKASGYTVTGYYMHWVRQAPGQGLEWMGWINPNSGGTNFAQNFQGRVTMTRDTSISTFYMDLNRLRSDDTAVYYCARGGAPVSYWFFDLWGRGTLVTVSS VL: DIQMTQSPSSLSASVGDRVTITCRASQSISRYLNWYQQKPGKAPKVLIYNTSSLKSGVPSRFSGSGSGTDFTLTISSLQPEDFGTFYCQQSHSTPFTFGPGTKVDIK

— US20230295310A1 (ABCELLERA BIOLOGICS, published 2023)
